{"source": "patent US20030223996A1", "about": "(published 2003)", "key": {"[1]": {"molecular_target": "T1, mouse membrane-bound BLyS on P388 plasma membranes (mouse, UniProt Q9WU72 1-309)", "T1 construct": "whole, on cells; Plasma membrane preparations, not intact cells", "T1 sequence (Q9WU72 whole entry)": "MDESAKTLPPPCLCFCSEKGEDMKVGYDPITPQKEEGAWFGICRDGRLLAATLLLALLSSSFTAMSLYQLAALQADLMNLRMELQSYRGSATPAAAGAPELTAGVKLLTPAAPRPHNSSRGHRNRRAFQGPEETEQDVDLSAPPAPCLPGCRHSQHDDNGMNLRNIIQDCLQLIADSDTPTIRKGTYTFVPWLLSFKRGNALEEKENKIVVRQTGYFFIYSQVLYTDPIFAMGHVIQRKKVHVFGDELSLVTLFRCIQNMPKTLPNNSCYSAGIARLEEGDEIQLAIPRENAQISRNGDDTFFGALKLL", "test": "competition phage ELISA on P388 membranes", "description": "The ability of the 5 scFvs listed in Table 8 to also recognize murine membrane-bound BLyS was determined using a competition ELISA. This assay assesses the ability of test phage scFvs to bind to the membrane-bound form of BLyS on the murine cell line, P388, plasma membranes in the presence of different forms of competing human BLyS. Competing BLyS was either presented as the His-tagged form of BLyS, or soluble BLyS. ScFvs that recognize mouse membrane-bound BLyS would give an ELISA signal on the P388 plasma membranes that is competed out by pre-incubation with HIS-tagged BLyS but not by pre-incubation with soluble BLyS.\nP388 plasma membranes (50 μl per well) were coated at 10 μg/ml in PBS onto Falcon 96-well plates overnight at 4° C. The method is otherwise essentially as described Example 16."}, "[2]": {"molecular_target": "T2, Tumour Necrosis Factor-alpha (human, UniProt P01375 77-233)", "T2 construct": "also called TNFα; TNF-α", "T2 sequence (P01375 77-233 limits assumed)": "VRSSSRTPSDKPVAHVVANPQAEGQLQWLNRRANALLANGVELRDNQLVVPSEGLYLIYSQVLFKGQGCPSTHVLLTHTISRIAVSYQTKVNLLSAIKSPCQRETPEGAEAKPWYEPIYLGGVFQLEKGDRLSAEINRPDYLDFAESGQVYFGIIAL", "test": "phage ELISA", "description": "(§1) To determine the specificity of the 48 scFvs, a phage ELISA was performed against human and mouse BLyS, and a panel of related and unrelated human antigens: Fas ligand, TRAIL, TNFα, TNFβ, and PBS. The: Fas ligand, TRAIL, TNFα, and TNFβ antigens were obtained from R&D Systems, Minneapolis, Minn. Individual E. coli colonies containing phagemid were inoculated into 5 ml 2YTAG and incubated at 37° C. for 4 hours, shaking. M13KO7 helper phage (Pharmacia) was added to each tube to a MOI of 10 and incubated […] 1 hour, the first 30 minutes static and the final 30 minutes with gentle shaking. Cells were pelleted by centrifugation at 3,500 rpm for 10 minutes and the supernatant discarded. Cell pellets were resuspended in 5 ml 2TYAK and incubated at 30° C. overnight with shaking. The next day, the cells were pelleted by centrifugation at 3,500 rpm for 10 minutes. The phage-containing supernatant (5 ml) was carefully transferred to a fresh tube, 1 ml of 6MPBS was added, and the tube was incubated at room temperature for 1 hour to pre-block the phage prior to ELISA.\n(§2) All antigens were coated at 1 μg/ml. ELISAs were performed essentially as described in Example 2. The only exception to this being the detection of phage antibody binding to mouse BLyS where the step involving incubation with the HRP-labelled anti-mouse polymer was omitted. Binding to mouse BLyS was detected with TMB as in Example 2."}, "[3]": {"molecular_target": "T3, Tumour Necrosis Factor-beta (human, UniProt P01374 35-205)", "T3 construct": "also called TNFβ; TNF-β", "T3 sequence (looked up)": "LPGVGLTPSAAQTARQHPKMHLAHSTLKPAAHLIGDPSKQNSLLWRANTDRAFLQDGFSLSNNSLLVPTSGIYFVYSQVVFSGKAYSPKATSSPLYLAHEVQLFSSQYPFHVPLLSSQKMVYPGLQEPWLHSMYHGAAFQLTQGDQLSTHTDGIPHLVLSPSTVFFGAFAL", "test": "phage ELISA", "description": "as §1, §2"}}, "data": [{"binder": "I079E02 (scFv) scFv: QVQLVQSGAEVKKPGSSVKVSCKASGGTFSSYAISWVRQAPGQGLEWMGGIIPIFGTANYAQKFQGRVTITADKSTSTAYMELSSLRSDDTAVYYCARDSGSYYYDAFDIWGKGTMVTVSSGGGGSGGGGSGGGGSDIVMTQSPSTLSASVGDRVTITCRASQGISSWLAWYQQKPGKAPKLLIYAASSLQSGVPSRFSGSGSGTDFTLTISSLQPEDFATYYCQQANSFPLTFGGGTKVEIKR", "values": [{"measurement": "binding result", "setting": "[1]", "result": "binds"}]}, {"binder": "I082H08 (scFv) scFv: EVQLVESGGGLVQPGGSLRLSCAASGFTFSDYGMHWVRQRPGKGLEWIAFIGSDGSNKYYGDTVKGRFTISRDNAKNSLYLQMNSLRAEGTAVYYCARDWDMDVWGQGTMVTVSSGGGGSGGGGSGGGGSSHVILTQPRSVSGSPGQSVTISCTGTSSDVGGYHYVSWYQQHPGKAPRLMIYEVTKRPSGVSNRFSGSKSGNTASLTISGVQAEDEADYYCSSYTSASTVIFGGGTKLTVLG", "values": [{"measurement": "binding result", "setting": "[1]", "result": "binds"}]}, {"binder": "I099D03 (scFv) scFv: QVQLVQSGAEVKKPGASVRVSCKSSGYTFTNYGISWVRQAPGQGLEWMGWISNNNGKTYYAQKVQGRVTMTTDTSTSTDYMELRGLRSDDTAIYYCARDNGGGTIGFDYWGRGTLVTVSSGGGGSGGGGSGGGGSAQAVLTQPSSVSGAPGQRVTMSCTGSSSNIGAGYDVHWYQQLPGTAPKLLIYDNTNRPSGVPDRFSGSRSGTSASLAITGLQAEDEADYFCQSYDITLSAVFGTGTKVTVLG", "values": [{"measurement": "binding result", "setting": "[1]", "result": "binds"}]}, {"binder": "I001C09 (scFv) scFv: GVQLVQSGPEVKKPGASVKVSCTASGYTFTSYGVSWVRQAPGQGLEWIGWISAHNGQTKYAEKFQGRVTMTRNTSISTAYMELSSLRSEDTAVYYCARDGSYDILTGYYIDNYMDVWGKGTMVTVSSGGGGSGGGGSGGGGSSELTQDPAVSVALGQTVRITCQGDSLRSYYTNWFQQKPGQAPLLVVYAKNKRPSGIPDRFSGSSSGNTASLTITGAQAEDEADYYCHSRDSSGNHVLFGGGTKLTVLG", "values": [{"measurement": "binding result", "setting": "[2]", "result": "no binding"}]}, {"binder": "I050A07 (scFv) scFv: QVQLVQSGAEVKKPGASMKVSCKASAGRASAYGFAMHPIHWVRQAPGQGLEWMGWINGGTGNTKYSEKFLGRVTMTSDTSATTAYMELSSLRSEDTAVYYCARQDNDPLTGYKLGFDYWGKGTLVTVSSGGGGSGGGGSGGGGSAQSVVTQPPSVSGAPGQRVTISCTGSSTNVGAGYGVHWYQQFPETAPKLLIYGGSNRPSGVPDRFSGSQSGTSASLAITGLQAEDEADYYCQSYDTTLSGYVFGTGTKVTVLG", "values": [{"measurement": "binding result", "setting": "[2]", "result": "no binding"}]}, {"binder": "I016F04 (scFv) scFv: QVQLQQSGSELKKPGASVKVSCKVSGYSLTKMSMHWVRQSPGEGLEWVGGIDPETRQPVYAQKFQGRVTITKDTSASAAYMELSSLGSEDTALYYCARATYDPLTGYSFDGFDIWGQGTLVTVSSGGGGSGGGGSGGGGSQSVLTQPASVSGSPGQSITISCTGTSSDVGGYNYVSWYQQHPGKAPKLMIYEGSKRPSGVSNRFSGSKSGNTASLTISGLQAEDEADYYCSSYTTRSTRVFGGGTKLTVLG", "values": [{"measurement": "binding result", "setting": "[3]", "result": "no binding"}]}]}
